Assay: yeast display, Sf9 membrane polyspecificity reagent, FACS + sequencing; frameworks hold sequencing errors
Method in brief: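 Nanobodies came from a synthetic yeast display library in Saccharomyces cerevisiae BJ5465, induced with galactose for 36–48 hours and stained for 1 hour at 4 °C with 10% biotinylated, detergent-solubilized Sf9 membrane reagent. Cells were enriched on streptavidin microbeads and then FACS-sorted, with low and high (top ~1%) gates set on anti-HA fluorescence for expression and streptavidin fluorescence for reagent binding. Each polyreactivity label reflects the gate a clone came from. Genes were amplified by colony PCR, sequenced by MiSeq 2 × 250 and filtered by CDR length.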

Sequence | polyreactivity (PSR sort gate)
QVQLVESGGGLVQAGGSLRISCAASGRIFGENAMGWYRQAPGKERELVAAIRFSSGSTYYADSVKGRFTISRDNAKNTVYLQMNSLKPEDTAVYYCNADGWYALYEWLAVSGYYWGQGTQVTVSS | low polyreactivity
QVQLVESGGGLVQAGGSLRISCAASGRIFLGNAMGWYRQAPGKERELVAAITNGGGSTYYADSVKGRFTISRDNAKNTVYLQMNSLKPEDTAVYYCARGYKKSVQRFEYWGQGTQVTVSS | high polyreactivity
QVQLVESGGGLVQAGGSLRISCAASGRIFPVNAMGWYRQAPGKERELVARISWRGGTYYADSVKGRFTISRDNAKNTVYLQMNSLKPEDTAFYYCAATLASTSYWYHYGYWGQGTQVTVSS | high polyreactivity
QVQLVESGGGLVQAGGSLRISCAASGRIFRAYAMGWYRQAPGKERELVADIRSTGSTNYADSVKGRFTISRDNAKNTVYLQMNSLNPEDTAGYYCAARWRSLRFGSGFEYWGQGTQVTVSS | high polyreactivity
QVQLVESGGGLVQAGGSLRISCAASGRIFTRNAMGWYTQAPGNETELVAAITSGGSTNYADSVKGRFTISRDNAKNTVYLQMNSLKPEDTAVYFCYAVYYPYRIWGRVRPSYGYWGQGTQVTVSS | high polyreactivity
QVQLVESGGGLVQAGGSLRISCAASGRIFYFNTMGWYRQAPGKERELVAAISLSGGRTYYADSVKGRFTISRDNAKNTVYLQMNSLKREDSAVYYCNAVARSRSRDTSKGDYWGQGTQVTVSS | high polyreactivity
QVQLVESGGGLVQAGGSLRISCAASGRIFYGNAMGWYRQAPGKERELVAAIRRSGGSTYYADSVKGRFTISRDNAKNTVYLQMNSLKPEDTAVYYCNVDSGEFDYVWVYTYDYWGQGTQVTVSS | low polyreactivity
QVQLVESGGGLVQAGGSLRISCAASGRIFYYNAMGWYRQAPGKERELVAAITSGGSTNYADSVKGRFTISRDNAKNTVYLQMNSLKPEDTAVYYCAADYYYYVAGVHYDYWGQGTQVTVSS | low polyreactivity
QVQLVESGGGLVQAGGSLRISCAASGRTFARNSMGWYRQAPGKERELVATITIGGRTYYADSVKGRFTISRDNAMNTVYLQMNSLKPEDTAVYYCAKRISGYRGDYWGQGTQVTVSS | high polyreactivity
QVQLVESGGGLVQAGGSLRISCAASGRTFDSYAMGWYIQAPGKEREFVAAISYSGTSTYYADSVKGRFTISRDYAKNTVYLQMNSLIPEDTAVYYCAKEFIFRLWGQGTQVTVSS | low polyreactivity
QVQLVESGGGLVQAGGSLRISCAASGRTFHYYDMGWYRQAPGKERELVAAISSTAGSTYYADSVKGRFTISRDNAQNTVHLQMNSLKPEDTAVYYCAARQFGYYHVRNEYWGQGTQVTVSS | high polyreactivity
QVQLVESGGGLVQAGGSLRISCAASGRTFKSYAMGWYRQAPGKERELVAAISSSGGRTFYADSVKGRFTISRDNAKNTVYLQMNSLKPEDTAVYYCNARYCYRYGGYKPVGGYYWGQGTQVTVSS | high polyreactivity
QVQLVESGGGLVQAGGSLRISCAASGRTFPGYTMGWYRQAPGKERELVAAITRVGTTYYADSVKGRFTISRDNAKNTVYLQMNSLKPEDTAVYYCAAVISQGFIRYYYWGQGTQVTVSS | high polyreactivity
QVQLVESGGGLVQAGGSLRISCAASGRTFRKYAMGWYRQAPGKERELVAAISWSGGSTYYANSVKGRFTISRDNAKNTVYLQMNSLKPEDTAVYYCAAVPVHTGSLYWGFTSGYDYWGQGTQVTVSS | low polyreactivity
QVQLVESGGGLVQAGGSLRISCAASGRTFVRYAMGWYRQAPGKERELVAAIDSSGGRTYYADSVKGRFTISRDKAKNTVYLQMNSLKPEDTAVYYCNARRLASYRGYSWGQGTQVTVSS | high polyreactivity
QVQLVESGGGLVQAGGSLRISCAASGRTFWRNAMGWYRQAPAKERELVAAISRGGSTNYADSVKGRFTISRDNAKNTVYLQMNSLKPEDTAVYYCAARYYYRYNYWGQGTQVTVSS | high polyreactivity
QVQLVESGGGLVQAGGSLRISCAASGRTLRPNAMGWYRQAPGKERELVAAITWSGGRTYYADSVKGRFTISRDNAKNTVYLQMNSLKPGDTAVYYCAADYGYYRGGVYFQKLKFDYWGQGTQVTVSS | high polyreactivity
QVQLVESGGGLVQAGGSLRISCAASGSIFGSYTMGWYRQAPGKERELVAVINWSGDRTYYADSVKGRFTISRDNAKNTVYLQMNSLKPEDTAVYYCAARERAGYSRIRYNYWGQGTQVTVSS | low polyreactivity
QVQLVESGGGLVQAGGSLRISCAASGSIFGVNAMGWYRQAPGKERELVASITGGDSTNYADSVKGRFTISRDNAKNTVYLQMNSLKPEDNEVYYCAKDHYYRYEEGDYWGQATQVTVSS | low polyreactivity
QVQLVESGGGLVQAGGSLRISCAASGSIFHFNAMGWYRQAPGKERELVARISIGGGSTYYADSVKGRFTISRDNAKNTVYFQMKSLKPEDTAVYYCGVDGSPRYKYDYWGQGTQVNVSS | high polyreactivity
QVQLVESGGGLVQAGGSLRISCAASGSIFPAYDMGWYRQAPGKERELVAAITRGGSTDYADSVNGRFTISRDNAKNTVYLQMNSLKPEDTAVYFCAKRGYYYYHYVSGKPEDYWGQGTQVTVSS | low polyreactivity
QVQLVESGGGLVQAGGSLRISCAASGSIFPRYAMGWYRQAPGTERELVATISASGTDTYYADSVKGRFTISRDNAKNTVYLQMNSLKPEDTAVYYCAAGGYPGGEDYWGQGTQVTVSS | low polyreactivity

Reference: the nanobody polyreactivity screen of Harvey et al. (2022)
